In the RNAGym collection of RNA variant scans (doi:10.1073/pnas.2313332121):
Fewer inactive variants are shown than the library holds.

B1: TPR 5TU (parent)
chain: GGAUCUUCUCGAUCUAACAAAAAAGACAAAUCUGCCACAAAGCUUGAGAGCAUCUUCGGAUGCAGAGGCGGCAGCCUUCGGUGGCGCGAUAGCGCCAACGUUCUCAACUAUGACACGCAAAACGCGUGCUCCGUUGAAUGGAGUUUAUCAUG

Variants of: B1
Experiment: polymerase ribozyme fitness, log enrichment relative to wild type (log ratio); higher = more active; in vitro selection for triplet polymerase activity
Procedure, shortened: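 A heterodimeric triplet polymerase ribozyme had each of its subunits mutagenized by PCR into a library, which was transcribed. One round of in vitro selection, done in triplicate, annealed each library with a biotinylated primer, its partner subunit and triplets, then incubated it frozen at −7 °C before gel excision of extended constructs, streptavidin-bead capture and RT-PCR. Fitness is the logarithm of genotype enrichment relative to wild-type enrichment, based on Illumina sequencing of inputs and outputs and inverse-variance-weighted replicate averages. A base-2 logarithm is used, and genotypes were kept only with ≥10 input reads and ≥1 read per output.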

Variant | polymerase ribozyme fitness (log ratio)
G68C C93G | ≤ -4.2
G67C G71C G86A A107U A121U U144G | ≤ -4.2
G68C A91C A106U U127A | ≤ -4.2
A66G G133U U145A | ≤ -4.2
C63U A122C | -0.464
C63U U139G | 0.261
C63G A110U G136U U148A | ≤ -4.2
G68U C69A A113G G117A | ≤ -4.2
A66U C75G U82G A106C C116U | ≤ -4.2
G65A G67C G92A | ≤ -4.2
C69A G94C | -0.673
C69A C118U | -1.62
C69A C118G | -2.21
C69A G143U | -3.34
G68A C123U | -3.89
C63U G70A G80C G83C C108G C116U | ≤ -4.2
C69A G117A | -0.631
A64C G71A A107G G141C | ≤ -4.2
G68C A89G A120G A147U U148G | ≤ -4.2
G68U C85A A110G C132G A137G G141C U151G | ≤ -4.2
G65U A73G G141A | ≤ -4.2
C63U C85U C87U | -0.425
A66G C93U A107U A138U U139A | ≤ -4.2
G62U U102A | -1.64

Variant | polymerase ribozyme fitness (log ratio)
A66C C69U C96U | ≤ -4.2
G68A C79U U139G U146C | ≤ -4.2
G65A C69G U78A U90G C96A G100A C108A U145A | ≤ -4.2
C63U G126C | 0.627
A66G U111C | ≤ -4.2
A64U A110G | ≤ -4.2
C63G G65C C93G A137C A142U | ≤ -4.2
G68U C85U U144A | -4.15
C63G C95A A110G A122U | -3.22
C63G C93A A98G C116U G140C | ≤ -4.2
G67U U146C | -2.47
C63U C75U U82A | 0.455
G67U G74C C103U A121U A137C U144G | ≤ -4.2
G68A C76A G86A U102C G124C G152A | ≤ -4.2
C63U U82G G126A G140A | -3.92
G68U A73G C76U A91U A98G C99A G112U | ≤ -4.2
G67U C93U | -3.74
G67C G68A G83A U90A G117A | ≤ -4.2
C69A U144C | -1.07
G68A C93G C129A U130A | ≤ -4.2
C69A C79A A115U C118A | ≤ -4.2
G65U C72A C85A U135G | ≤ -4.2
C69A C87A A106C G140A | ≤ -4.2
G68A A138G | ≤ -4.2

Variant | polymerase ribozyme fitness (log ratio)
C63U C95U | -0.692
A66C G92C C114U | ≤ -4.2
A64G G68A | ≤ -4.2
C63U G65A A73U A115G U134G | ≤ -4.2
G68U C99U G117C G143A | ≤ -4.2
G65C U90C | ≤ -4.2
G65A C105U | -0.804
C63G G67C U135G | ≤ -4.2
C69A G83C | -3.07
A66C A73C | ≤ -4.2
C69A G84A U104G C125U G126A A142C | ≤ -4.2
A64U C69U | ≤ -4.2
C63G G65A G71A C87A C118U U145C | ≤ -4.2
A66C C85G G141A U146C | ≤ -4.2
A64C C69U G84A G136U G141U | ≤ -4.2
C69A G140U | -3.21
C63G G81C U82A | -0.391
G68C G88U U104G C114U U127C | ≤ -4.2
G68A C96U C132G | ≤ -4.2
A66G C93U C108U C132G C149A | ≤ -4.2
G67C | -3.97
G67A | -3.22
G67U | -2.55
G67A C85G A106G C129U G140C G143A | ≤ -4.2

Variant | polymerase ribozyme fitness (log ratio)
C69A A73G G92C | -1.54
G62U A73U | -3.59
A64G A91G C123G | ≤ -4.2
A64U G92A C95A U101C C105U C123A G124C U145G U148G | ≤ -4.2
A66U G88A U145G U148C A150C | ≤ -4.2
A64G A137G | ≤ -4.2
G67A C72A A142U | ≤ -4.2
G68C C99G A106G C129U | ≤ -4.2
G62U G124C | -1.42
G68C U78C C96A A98G G143A | ≤ -4.2
G67U C76G G143A A150G | ≤ -4.2
G68A C75U C85G G136U U148A | ≤ -4.2
C63U C85U A113U U146A | -3.03
C69A U104G | -3.09
G68C C85G G136C | ≤ -4.2
G68C U78A | ≤ -4.2
C63A C87U G88A A115U | ≤ -4.2
A66U C96A U111A A122G A138C | ≤ -4.2
A66C G92C C96G A120G | -4.14
C69A G84A A89G U146C | -2.59
G68A A91C A120G A147C | ≤ -4.2
C69A C72U | -3.05
G65A C93U | -1.96
G67A G84U | ≤ -4.2

Variant | polymerase ribozyme fitness (log ratio)
C63U C69A C85U A97C C118G G126C | -3.97
C69A C76A U109C | ≤ -4.2
G68C C93G C131A | ≤ -4.2
C63U A98G G126U C129G | ≤ -4.2
A66C G70A G71A G100U G143A U148G | ≤ -4.2
G68U A73U G94A A119U | ≤ -4.2
C63A G80A C85G C96G A110G | ≤ -4.2
G62U C72G C93A | ≤ -4.2
A66G U82G C93A | ≤ -4.2
G68C C79A G83U U101A U104C C108G A142G | ≤ -4.2
G65A C85A | -2.26
G67U G94C A119C U134G A147C | ≤ -4.2
G68A C85U A97U A107U G128A C132U | ≤ -4.2
C63G A66G G71A G74U U135G G143C | ≤ -4.2
G67A C96A | -3.46
C63U U148C | -1.65
G65A G71U C85A | ≤ -4.2
G65U G94A | ≤ -4.2
G68U C103U G141C | ≤ -4.2
C63A A107C U111C A122G | ≤ -4.2
G65C C99G | ≤ -4.2
C69A A119U | -2.7
A64C C85A C118G A121C | ≤ -4.2
A64U C87U G100C U135G A150G | ≤ -4.2

Variant | polymerase ribozyme fitness (log ratio)
A66C C85G | -4.16
A66G G81U C87G C99U U104G U134A A142U | ≤ -4.2
G68A C72U | -4.15
G68U G94C C95A A115U G136U | ≤ -4.2
C63A C85G C95U C118U | -2.65
G65U G71C A73U A122U G126A A137C U146A | ≤ -4.2
A66C A73G G80C C114A G141A | ≤ -4.2
G67A C114U U134G A150C | ≤ -4.2
G67C A97C C103G C125U C129U A142U G143C A150U | ≤ -4.2
G67C G86C C96A G112U A113U G126U | ≤ -4.2
C63G G83A A98C U104A | -0.841
A64C A73U G84A U102G C116A | ≤ -4.2
C63U C75U C76U G80A U82A C108G C114U U148C | ≤ -4.2
C69A G71U | -0.808
G68A C87A A106C G117U | ≤ -4.2
G62U U77A G86U C99G | ≤ -4.2
C63U G141U | 1.25
A64U A121C G143A | ≤ -4.2
G65C A66C G81A C85G A121G | -4.16
G68U C75A G81U G83A C95U C96U C116U | -1.31
G67C G84A C99U C105A A115C A137C G141A | ≤ -4.2
A66G C105U | -3.63
A66G U77A G83U U104A G117U | ≤ -4.2
A66G U90G C93G | ≤ -4.2

Variant | polymerase ribozyme fitness (log ratio)
A64G G83U C118A A138G | ≤ -4.2
C63G G133U | -4.14
A66G C123G | ≤ -4.2
G68C G84A C85A | ≤ -4.2
C63U C125U G133U | -3.67
G68C C103U | ≤ -4.2
G68U C85G | ≤ -4.2
G67C C87A G100A | ≤ -4.2
C63A G92U C116U | -3.98
G62C G68U A89G C108A A113U | ≤ -4.2
A66G G68C U102A | ≤ -4.2
A64C G65A A107G G112U G124A G141U U148G | ≤ -4.2
G67C C76U C96U C149U | ≤ -4.2
C69A G84A | -2.31
C63U C93A C116G A142G | -3.41
G62U C132A | ≤ -4.2
A66G C76U C85A C96U | ≤ -4.2
G65C G88U A106U G140C | ≤ -4.2
C63U G70A C85G A138C | ≤ -4.2
G65C A89C G92A U102G C116U A137G | ≤ -4.2
G67U U102G | ≤ -4.2
C63A A120U G124C | -2.49
G67U A120U | -2.15
